Source: paper PMC4019985, “Mitochondrial thiol oxidase Erv1: both shuttle cysteine residues are required for its function with distinct roles” (Biochemical Journal, 2014)
“And” between values parts separate entries of the source, which are not always exact repeats. Identical values can stand only once.

B1: Erv1^CXXS (Erv1C33S) (enzyme, S. cerevisiae, UniProt P27882 1-189, looked up)
chain: MKAIDKMTDNPPQEGLSGRKIIYDEDGKPCRSSNTLLDFQYVTGKISNGLKNLSSNGKLAGTGALTGEASELMPGSRTYRKVDPPDVEQLGRSSWTLLHSVAASYPAQPTDQQKGEMKQFLNIFSHIYPCNWCAKDFEKYIRENAPQVESREELGRWMCEAHNKVNKKLRKPKFDCNFWEKRWKDGWDE
notes: Erv1, S. cerevisiae, full length, second shuttle cysteine changed to serine
B2: Erv1^SXXC (Erv1C30S) (enzyme, S. cerevisiae, UniProt P27882 1-189, looked up)
chain: MKAIDKMTDNPPQEGLSGRKIIYDEDGKPSRSCNTLLDFQYVTGKISNGLKNLSSNGKLAGTGALTGEASELMPGSRTYRKVDPPDVEQLGRSSWTLLHSVAASYPAQPTDQQKGEMKQFLNIFSHIYPCNWCAKDFEKYIRENAPQVESREELGRWMCEAHNKVNKKLRKPKFDCNFWEKRWKDGWDE
notes: Erv1, S. cerevisiae, full length, first shuttle cysteine changed to serine; Found as a tetramer (peak 1, yellow) and a dimer (peak 2, black, charge-transfer complex)

Assays:
Cys33 = Cys33 (UniProt position 33, KPSRSCNTLLD); assay: chemical modification (monobromobimane alkylation) with fluorescence detection; details: 25°C; I = 0.15 M (constant ionic strength buffers, 120 mM NaCl); 15 mM acetic acid, 15 mM Mes and 30 mM Tris (pH 3.5–9.0), or 30 mM Aces, 15.6 mM Tris and 15.6 mM ethanolamine (pH 5.7–10). Both contained 120 mM NaCl and 0.1 mM DTPA.; Folded, FAD-bound. The single shuttle cysteine is reduced (free thiol, confirmed by AMS modification), and the active-site cysteines are replaced by serine.
Cys30 = Cys30 (UniProt position 30, EDGKPCRSSNT); assay: as above; details: 25°C; I = 0.15 M (constant ionic strength buffers, 120 mM NaCl); 15 mM acetic acid, 15 mM Mes and 30 mM Tris (pH 3.5–9.0), or 30 mM Aces, 15.6 mM Tris and 15.6 mM ethanolamine (pH 5.7–10). Both contained 120 mM NaCl and 0.1 mM DTPA.; Folded, FAD-bound. The single shuttle cysteine is reduced (free thiol, confirmed by AMS modification), and the active-site cysteines are replaced by serine.
[1] = target: the molecule itself; assay: SEC; Superdex 75 in buffer A (50 mM Tris/HCl pH 7.4, 150 mM NaCl); elution position compared with the Erv1 tetramer
[2] = target: the molecule itself; assay: SEC-MALS; Superdex 200 10/30 in buffer A (150 mM NaCl, 50 mM Tris/HCl pH 7.4), in-line DAWN EOS photometer and Optilab rEX refractor; the two gel-filtration peaks of the protein
Erv1^SXXC (Erv1C30S) = target: B2; assay: mixed disulfide trapping, non-reducing SDS/PAGE and Western blot; single cysteine mutants pre-treated with 2 mM TCEP, exchanged to buffer A, incubated at 5 uM each for 20 min at room temperature (stopped with 2.5 mM AMS, or 1 mM DTT as reducing control), or 50 uM Mia40 and 5 uM Erv1 over 10 min (stopped with 20 mM IAM); detected with an antibody against Erv1; details: both partners purified
Erv1^CXXS (Erv1C33S) = target: B1; assay: as above; details: both partners purified
[3] = target: the molecule itself; assay: non-reducing SDS/PAGE (intermolecular disulfide-bonded dimer); gel-filtration fractions of the purified proteins on Tris/Tricine SDS/PAGE (16% gel) under reducing and non-reducing conditions

## Mitochondrial FAD-linked sulfhydryl (thiol) oxidase Erv1, triple mutant Erv1^SCSS (C30S/C130S/C133S) (Saccharomyces cerevisiae; C30S;C130S;C133S)
Cys33
  pKa: 8.41±0.06

## Mitochondrial FAD-linked sulfhydryl (thiol) oxidase Erv1, triple mutant Erv1^CSSS (C33S/C130S/C133S) (Saccharomyces cerevisiae; C33S;C130S;C133S)
Cys30
  pKa: 8.39±0.12

## B1
[1]
  stoichiometry N: 4

## B2
[2]
  stoichiometry N: 4 and 2

B3: Mia40^CPS, core domain Mia40c (amino acids 284-403) with the second cysteine of the CPC motif changed to serine (domain or fragment, S. cerevisiae, UniProt P36046 284-403, looked up)
chain: AYNPDTGEINWDCPSLGGMAHGPCGEEFKSAFSCFVYSEAEPKGIDCVEKFQHMQDCFRKYPEHYAEQLKETSDDEEPQDKVKVNTIESAPNVSSAKENAAKKAEQSDVKKEPLNEESKP
notes: Mia40, S. cerevisiae, core domain Mia40c, residues 284-403 (~15 kDa); second cysteine of the CPC motif (Cys298) changed to serine; source: purified (glutathione-Sepharose 4B, thrombin cleavage, Superdex 75)
Erv1^SXXC (Erv1C30S)
  binding result: binds
Erv1^CXXS (Erv1C33S)
  binding result: binds

B4: Mia40^SPC, core domain Mia40c (amino acids 284-403) with the first cysteine of the CPC motif changed to serine (domain or fragment, S. cerevisiae, UniProt P36046 284-403, looked up)
chain: AYNPDTGEINWDSPCLGGMAHGPCGEEFKSAFSCFVYSEAEPKGIDCVEKFQHMQDCFRKYPEHYAEQLKETSDDEEPQDKVKVNTIESAPNVSSAKENAAKKAEQSDVKKEPLNEESKP
notes: Mia40, S. cerevisiae, core domain Mia40c, residues 284-403 (~15 kDa); first cysteine of the CPC motif (Cys296) changed to serine; source: purified (glutathione-Sepharose 4B, thrombin cleavage, Superdex 75)
Erv1^SXXC (Erv1C30S)
  binding result: binds
Erv1^CXXS (Erv1C33S)
  binding result: binds

B5: Erv1 (essential for respiration and viability 1), wild-type (enzyme, S. cerevisiae, UniProt P27882 1-189, looked up)
chain: MKAIDKMTDNPPQEGLSGRKIIYDEDGKPCRSCNTLLDFQYVTGKISNGLKNLSSNGKLAGTGALTGEASELMPGSRTYRKVDPPDVEQLGRSSWTLLHSVAASYPAQPTDQQKGEMKQFLNIFSHIYPCNWCAKDFEKYIRENAPQVESREELGRWMCEAHNKVNKKLRKPKFDCNFWEKRWKDGWDE
notes: Erv1, FAD-dependent thiol oxidase of the mitochondrial intermembrane space, S. cerevisiae, full length; Construct in pET24a(+) via Nde1/Xho1; also called WT Erv1; WT
[3]
  binding result: binds

B6: Erv1 redox active-site disulfide double cysteine mutant (C130/C133S) (enzyme, S. cerevisiae, UniProt P27882 1-189, looked up)
chain: MKAIDKMTDNPPQEGLSGRKIIYDEDGKPCRSCNTLLDFQYVTGKISNGLKNLSSNGKLAGTGALTGEASELMPGSRTYRKVDPPDVEQLGRSSWTLLHSVAASYPAQPTDQQKGEMKQFLNIFSHIYPSNWSAKDFEKYIRENAPQVESREELGRWMCEAHNKVNKKLRKPKFDCNFWEKRWKDGWDE
notes: Erv1, S. cerevisiae, full length, both active-site cysteines changed to serine; also called Erv1^CCSS
[3]
  binding result: binds
